Measured values published in patent US20170369592A1, “NOVEL ANTI-FIBROBLAST ACTIVATION PROTEIN (FAP) ANTIBODIES AND USES DERIVED THEREOF” (Mabimmune Diagnostics AG, priority 2015, published 2017).

Assays:
[1] = system: human invasive ductal carcinoma and invasive lobular carcinoma sections; experiment: Confocal immunofluorescence on human carcinoma cryosections; conditions: Cyanine 3 labelled antibody
Protocol: NI-206.82C2 was labelled with Cyanine 3 for fluorescent imaging (Cy3 conjugation kit: Innova Biosciences, 340-0030) and antibody labelling was validated using a spectophotometer. Cryosections from human invasive ductal carcinoma tissues (FIG. 9, A) and invasive lobular carcinoma (FIG. 9, B) were fixed for 5 minutes in ice cold acetone and allowed to dry for 10 minutes before washing in PBS. The sections were then incubated for 1 hr at room temperature in 5% BSA in PBS. The tissue sections were then incubated with Cyanine 3 prelabelled antibodies overnight at 4° C., and then washed three times in PBS before incubation with DAPI at 0.5 μg/mL. Sections were then washed three additional times in PBS and mounted in Lisbeth's mounting medium before imaging on a SP8 confocal microscope (Leica Microsystems).

[2] = system: murine CT-26 colorectal cancer tissue sections; experiment: Immunofluorescence on murine colorectal cancer tissue sections; set-up: species or system mouse; conditions: Cy5 labelled antibody
Protocol: NI-206.82C2 was prelabelled with Cyanine 5 antibody labeling kit (Innova Biosciences, 342-0010), and sufficient antibody labelling was validated with a photospectrometer. Cryosections of mouse livers containing syngeneic CT-26 liver metastasis were allowed to dry for 30 min at room temperature the fixed for 10 min in 4% formalin in PBS. Slides were then washed 3 times for 5 minutes in PBS and blocked for 1 hr at room temperature with 5% bovine serum albumin in PBS. The slides were then incubated overnight at 4° C. with staining solution containing DAPI at 0.5 μg/mL, and Alexa 547 phalloidin (Invitrogen) according to the manufacturer's instructions, and either Cy5 labelled NI-206.82C2 or a Cy5 labelled isotype-matched control antibody 3A1 at a concentration of 10 µg/mL, in blocking solution with 0.5% Triton X100. Slides were then washed 3 times in PBS, mounted in Lisbeth's mounting medium, and imaged with an SP8 confocal microscope (Leica Microsystems).

[3] = system: obstructive human coronary thrombi and aortic atherosclerotic plaque; experiment: Confocal immunofluorescence on coronary thrombi and atherosclerotic plaque; conditions: Cyanine 3 labelled antibody
Protocol: NI-206.82C2 was labelled with Cyanine 3 for fluorescent imaging (Cy3 conjugation kit: Innova Biosciences, 340-0030) and antibody labelling was validated using a spectophotometer. Cryosections from myocardial infarction causing obstructive human coronary thrombi (FIG. 14, A) and human aortic atherosclerotic plaque (FIG. 14, B) were fixed for 5 minutes in ice cold acetone and allowed to dry for 10 minutes before washing in PBS. The sections were then incubated for 1 hr at room temperature in 5% BSA in PBS, and then incubated with Cyanine 3 labelled antibodies overnight at 4° C., before washing three times in PBS before incubation with DAPI at 0.5 μg/mL. Sections were then washed three additional times in PBS and mounted in Lisbeth's mounting medium before imaging on a SP8 confocal microscope (Leica Microsystems).

- binding to human invasive ductal carcinoma and invasive lobular carcinoma sections [1]: specifically binds
- binding to obstructive human coronary thrombi and aortic atherosclerotic plaque [3]: binds
B1: NI-206.82C2: recombinant human memory B cell-derived monoclonal anti-FAP IgG1 antibody, variable regions in FIG. 1A, FAP inhibitory (antibody, V domains shown)
VH: QVQLQQSGPGLVKPSQTLSLTCAISGDSVSSNSVTWNWIRQSPSRGLEWLGRTYYRSKWYNDYAVSVKGRITINPDTSKNQFYLQLKSVTPEDAAVYYCARDSSILYGDYWGQGTLVTVSS
VL: QAVLTQPSSLSASPGASASLTCTLPSGINVGTYRIFWFQQKPGSPPQYLLSYKSDSDNHQGSGVPSRFSGSKDASANAGILLISGLQSEDEADYYCMIWHSSAWVFGGGTKLTVL
- staining of CT-26 syngeneic liver metastasis sections [2]: found around the perimeter
